In the test the target is T1, human TEM1 (endosialin/CD248) (human) (UniProt Q9HCU0).
T1 sequence (chain, biotinylated in the SPR assay of Table 6 (sites not stated)): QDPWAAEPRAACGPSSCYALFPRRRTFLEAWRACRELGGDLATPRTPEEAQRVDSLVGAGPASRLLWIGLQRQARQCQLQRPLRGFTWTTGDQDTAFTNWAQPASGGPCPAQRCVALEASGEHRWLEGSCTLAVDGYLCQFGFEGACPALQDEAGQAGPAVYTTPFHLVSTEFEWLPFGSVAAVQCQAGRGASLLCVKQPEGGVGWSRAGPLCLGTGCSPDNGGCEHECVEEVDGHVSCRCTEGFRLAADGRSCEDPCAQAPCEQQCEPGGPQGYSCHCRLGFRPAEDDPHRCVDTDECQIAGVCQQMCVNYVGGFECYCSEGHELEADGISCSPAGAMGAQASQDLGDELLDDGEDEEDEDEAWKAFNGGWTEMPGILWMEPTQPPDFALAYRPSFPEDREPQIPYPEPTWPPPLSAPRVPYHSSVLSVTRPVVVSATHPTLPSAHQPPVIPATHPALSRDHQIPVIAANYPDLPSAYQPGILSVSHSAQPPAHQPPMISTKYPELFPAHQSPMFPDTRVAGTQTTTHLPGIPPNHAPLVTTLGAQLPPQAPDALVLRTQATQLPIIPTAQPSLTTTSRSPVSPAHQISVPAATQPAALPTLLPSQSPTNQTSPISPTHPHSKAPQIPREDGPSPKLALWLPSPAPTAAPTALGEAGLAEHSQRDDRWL
Nature of the test: SPR (BIAcore), biotin-hTEM1 captured on CAP chip, antibody 0-50 nM as analyte. A general note: Surface plasmon resonance follows binding to a sensor surface in real time, without labels.

The text below walks through data of patent publication US20160369011A1.

The Kd is the free concentration of one partner at which half of the binding sites on the other are occupied at equilibrium, for simple one-to-one binding. As a reminder, the koff is the rate constant with which the complex falls apart. Usually kon stands for a measure of how fast the partners come together. Higher therefore signals fast association.

B1: 1-55-2 (rabbit anti-hTEM1 mAb) (antibody, V domains shown)
VH: QSVEESGGDLVKPEGSLTLTCTASGFSFSSSYWGCWVRQAPGKGPEWIACIYGGSSGTTYYPNWAKGRFSISKTSSTTVTLQMASLTAADTATYFCARVTNGGDWDFKLWGPGTLVTISS
VL: ELVMTQTPASVEVAVGGTVTIKCQASQSINTYLAWYQQKPGQPPKLLIYRASTLASGVPSRFKGSGSGTEFTLTISDLECADAATYYCQQSVRVIDVDNTFGGGTEVVVK
Molecule B1 had an equilibrium dissociation constant (Kd) of 0.015 nM, a koff of 5.8e-05 s⁻¹ and a kon of 3.7e+06 M⁻¹ s⁻¹.

B2: xi1-55-2 (rabbit/human chimerized 1-55-2 mAb) (antibody, human IgG1, kappa, V domains shown)
VH: QSVEESGGDLVKPEGSLTLTCTASGFSFSSSYWGCWVRQAPGKGPEWIACIYGGSSGTTYYPNWAKGRFSISKTSSTTVTLQMASLTAADTATYFCARVTNGGDWDFKLWGPGTLVTISS
VL: ELVMTQTPASVEVAVGGTVTIKCQASQSINTYLAWYQQKPGQPPKLLIYRASTLASGVPSRFKGSGSGTEFTLTISDLECADAATYYCQQSVRVIDVDNTFGGGTEVVVKR
B2 registered a Kd of 0.046 nM, a koff of 7.1e-05 s⁻¹ and a kon of 1.5e+06 M⁻¹ s⁻¹.
